The subject of this test is Huh7 cells. The test is described as follows: Plasma membrane retention of full-length MOG in transformed Huh7 cells. It counts as cell-based. As to conditions: 72 hr post-transfection, leaders WT, Sp7, HC7s. How it is done:
To examine the secretability of the full-length MOG protein the plasma membrane and cell lysate and media of transformed Huh7 cells were examined for MOG expression. Huh7 cells were grown to ˜80% confluency and transformed using plasmids expressing full-length myelin oligodendrocyte glycoprotein (MOG) with various leader sequences: Wildtype (WT; native MOG leader), human chymotrypsinogen B2 signal peptide (“Sp7”; 18 amino acid signal peptide of NCBI reference sequence NP_001020371), or a combination of WT with the heavy chain 7 sequence (HC7s; Haryadi et al., PloS ONE 10(2): e0116878. doi:10.1371/journal.pone.0116878 (2015)). Cells and media were harvested 72 hr post-transfection. Plasma membrane fractions from cells were enriched as described (Nishiumi et al., Biosci. Biotechnol. Biochem. 71 (9), 2343-2346, (2007)) Briefly, cells were harvested in modified Buffer A (50 mM Tris, 0.5 mM DTT) with protease inhibitors (cOmplete™ tablets, Roche) and 0.1% Triton X100. The cells were sheared by passage through a 25-gauge needle; 3 times. The homogenate was centrifuged for 10 min at 1000×g at 4° C. The supernatant was harvested as post-plasma membrane (PPM) fraction. […] Standard WES parameters were used, and samples were analyzed on Compass Software (ProteinSimple).

B1: full-length MOG: full-length myelin oligodendrocyte glycoprotein expressed from plasmids with WT, Sp7 or HC7s leader sequences (protein, UniProt Q16653 1-247, looked up)
chain: MASLSRPSLPSCLCSFLLLLLLQVSSSYAGQFRVIGPRHPIRALVGDEVELPCRISPGKNATGMEVGWYRPPFSRVVHLYRNGKDQDGDQAPEYRGRTELLKDAIGEGKVTLRIRNVRFSDEGGFTCFFRDHSYQEEAAMELKVEDPFYWVSPGVLVLLAVLPVLLLQITVGLIFLCLQYRLRGKLRAEIENLHRTFDPHFLRVPCWKITLFVIVPVLGPLVALIICYNWLHRRLAGQFLEELRNPF
modifications: full-length
Turning to B1, the “localisation of full-length MOG (plasma membrane vs cell lysate and media)” value is “retained in the plasma membrane”. Further, the “localisation of full-length MOG (plasma membrane vs cell lysate and media)” value (listed as Mature MOG) is “enriched in the plasma membrane”.

Values taken from patent US20230040275A1, “SECRETABLE PROTEIN INDUCED IMMUNE TOLERIZATION AND TREATMENT OF AUTOIMMUNE, ALLERGIC AND OTHER DISEASES AND DISORDERS” (SPARK THERAPEUTICS, INC., priority 2019, published 2023).
